This is an account of results in US20190309085A1.

The target of the test is CD16aV (human) (UniProt P08637). Put plainly: BLI (Octet), His-captured hCD16aV, 1:1 model.
Sequence of CD16aV (human) (P08637 17-208 F176V limits assumed): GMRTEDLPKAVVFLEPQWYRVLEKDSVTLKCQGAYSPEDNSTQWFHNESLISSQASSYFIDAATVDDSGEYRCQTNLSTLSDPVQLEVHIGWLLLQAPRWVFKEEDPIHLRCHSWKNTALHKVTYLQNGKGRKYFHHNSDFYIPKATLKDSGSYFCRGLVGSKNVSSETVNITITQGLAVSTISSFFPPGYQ

The substance Fc-WT (antibody) showed a Kd of 0.58 µM.
